Test results from US20010052137A1, “Axin domain-like polypeptide inhibitors of glycogen synthase kinase 3 beta activity and activators of wnt signaling” (Trustees of the University of Pennsylvania, priority 2000, published 2001).

What was measured:
[1] = target: T1, G(alpha)q subunit of heterotrimeric G-proteins (Homo sapiens, UniProt P50148); experiment: Yeast two hybrid assay, interaction with G(alpha)q; assay type: binding; conditions: beta-galactosidase filter assay in S. cerevisiae
T1 sequence (P50148 1-359): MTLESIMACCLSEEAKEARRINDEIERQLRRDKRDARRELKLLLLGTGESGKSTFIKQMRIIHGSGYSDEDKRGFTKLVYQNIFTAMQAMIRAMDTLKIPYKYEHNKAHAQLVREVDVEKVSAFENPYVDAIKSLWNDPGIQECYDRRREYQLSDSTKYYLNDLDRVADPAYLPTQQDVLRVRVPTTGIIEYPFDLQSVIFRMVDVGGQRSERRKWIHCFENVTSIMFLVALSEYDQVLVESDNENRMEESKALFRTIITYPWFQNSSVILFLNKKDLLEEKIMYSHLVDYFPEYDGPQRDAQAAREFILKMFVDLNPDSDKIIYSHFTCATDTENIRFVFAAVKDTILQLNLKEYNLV
Excerpt: (§1) FL Xaxin was cloned in frame with the GAL4 DNA binding domain (BD) in plasmid pAS2-1 (Clontech) to yield BD plasmid. Expression of BD plasmid yielded a Xaxin-GAL4 fusion protein. FL Xaxin, deltaDIX Xaxin, and a fragment (designated “AID”) encoding amino acid residues 489-777 of Xaxin were cloned in frame with the GAL4 transcriptional activation domain (AD) in the vector pACT2 to yield AD plasmids. Yeast were transformed with BD and AD plasmids using previously described protocols (Clontech, Palo Alto, Calif.). Transformed colonies were selected and assayed for beta-galactosidase activity in order to detect interacting proteins. In addition, three Xenopus axin partial length cDNAs (designated Y2H 2, Y2H 6, Y2H 7; all in plasmid pACT2) isolated from a previous yeast two hybrid screen (Hedgepeth et al., 1999, Mech. Develop. 80:147-151) were analyzed. Purification of GID
(§2) Using the yeast two hybrid assay, the ability of axin to bind with itself, with other members of the wnt pathway, or with the G(alpha)q subunit of heterotrimeric G-proteins, was investigated. […]
(§3) Saccharomyces cerevisiae cells were transformed with the bait vector and with one of the target vectors. Interaction was assessed using a filter assay to detect beta-galactosidase activity, as described (Fields et al., 1989, Nature 340:245-247; Harper et al., 1993, Cell 75:805-816). […]

beta-catenin = beta-catenin protein accumulation in Xenopus oocytes (immunoblot); assay type: cell-based; conditions: construct mRNA expressed in Xenopus oocytes
Procedure: FIG. 2A is an image of an immunoblot of Xenopus cytoplasmic extracts obtained from Xenopus embryos in which beta-catenin was expressed, using an antibody which binds specifically with beta-catenin (described in McCrea et al., 1993, J. Cell. Biol. 123:477-84). The embryo corresponding to lane 2 was incubated in the presence of 20 millimolar LiCI. Extracts corresponding to lanes 3-5, 7, and 8 were obtained from embryos in which full-length (lane 8) Xaxin or the C-term (lane 3), GID1 (“GID”; lanes 4 and 7), or N-term (lane 5) fragments of Xaxin were expressed.
Although endogenous GSK-3 beta is not present at sufficient levels to detect using the tau assay, inhibition of GSK-3 beta is known to cause stabilization of cytoplasmic beta-catenin (Cadigan et al., 1997, Genes Dev. 11:3286-3305; Miller et al., 1996, Genes Develop. 10:2527-2539), and this serves as a widely used assay for downstream activation of wnt signaling. Inhibition of endogenous GSK-3 beta activity also causes stabilization of beta-catenin in Xenopus embryos and oocytes (Hedgepeth et al., 1997, Develop. Biol. 185:82-91; Yost et al., 1998, Cell 93:1031-1041; Yost et al., 1996, Genes Develop. 10:1443-1454). For this reason, levels of beta-catenin protein were assessed in Xenopus oocytes which had been injected either with full length Xaxin mRNA or with mRNA encoding one of the amino-terminal, GID, or carboxyl-terminal domains of Xaxin.

[2] = target: T2, carboxyl-terminal fragment of Xenopus frizzled 7 (Xenopus laevis, UniProt Q9PUK8); experiment: Yeast two hybrid assay, interaction with frizzled 7 fragment; assay type: binding; conditions: beta-galactosidase filter assay in S. cerevisiae
T2 sequence (Q9PUK8 525-549 limits assumed): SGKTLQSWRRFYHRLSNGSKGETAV
Excerpt: as §1, §2, §3

GSK-3 beta = experiment: Co-immunoprecipitation of GSK-3 beta with Myc-tagged Xaxin constructs in Xenopus oocytes; assay type: binding; conditions: Myc-tagged construct co-expressed with GSK-3 beta in Xenopus oocytes; anti-Myc IP, anti-GSK-3 beta blot

B1: full length Xaxin: full length Xenopus axin, amino acid residues 1-842 (SEQ ID NO: 8) (protein, listed as Xenopus laevis)
chain: MSVKGKGFPLDLGGSFTEDAPRPPVPGEEGELITTDQRPFSHTYYSLKNDGIKNETSTATPRRPDLDLGYEPEGSASPTPPYLKWAESLHSLLDDQDGIHLFRTFLQQENCADLLDFWFACSGFRKLEPNDSKVEKRLKLAKAIYKKYVLDSNGIVSRQIKPATKSFIKDCVLRQQIDPAMFDQAQMEIQSMMEDNTYPVFLKSDIYLEYTTIGGESPKNYSDQSSGSGTGKGPSGYLPTLNEDEEWRCDQGGEHERERECIPSSLFSQKLALDSSSHCAGSNRRLSDGREFRPGTWREPVNPYYVNTGYAGAPVTSANDSEQQSMSSDADTMSLTDSSVDGIPPYRLRKHYRREMQESANANGRGPLPHIPRTYHMPKDIHVDPEKFAAELISRLEGVLRDREAEQKLEERLKRVRAEEEGDDGDVSSGPSVISHKLPSGPPMHHFNSRYSETGCVGMQIRDAHEENPESILDEHVQRVMKTPGCQSPGTGRHSPKSRSPDGHLSKTLPGSLGTMQTGHGKHSSKSTAKVDSGNLHHHKHVYHHVHHHGGVKPKEQIDGESTQRVQTNFPWNVESHNYATKSRNYAESMGMAPNPMDSLAYSGKVSMLSKRNAKKADLGKSESASHEMPVVPEDSERHQKILQWIMEGEKEIIRHKKSNHSSSSAKKQPPTELARPLSIERPGAVHPWVSAQLRNVVQPSHPFIQDPTMPPNPAPNPLTQLVSKPGARLEEEEKKAAKMPQKQRLKPQKKNVSAPSQPCDNIVVAYYFCGEPIPYRTMVKGRVVTLGQFKELLTKKGNYRYYFKKVSDEFDCGVVFEEVREDDMILPIYEEKIIGQVEKID
interaction with G(alpha)q [1]: did not interact | accumulation of beta-catenin (beta-catenin): not observed | interaction with carboxyl-terminal fragment of Xenopus frizzled 7 [2]: did not interact | binding with GSK-3 beta (co-immunoprecipitation) (GSK-3 beta): bound
